Where no end group is shown, it is not given here. [ ]: non-standard residue; d: D form. pS = N[C@@H](COP(=O)(O)O)C(=O)O
Columns and labels:
[1] = target: SHARP (human SPOC domain) SPOC domain, 3477-3664 (UniProt Q96T58); assay: anti-Flag co-IP, NCoR blot; conditions: reference: NCoR-C wild type; sites S2449,S2451
[2] = substrate: SPOC domain from murine SHARP, residues 3474-3643 (mouse) (UniProt Q62504); assay: ITC

Row | Molecule | binding against the reference [1] | Kd [2] [nM]
1 | NCoR NCoR-C, 1942-2453 (from UniProt Q60974) NCoR-C S2449A/S2451A | lost | –
2 | REPAPLLSAQYETL[pS]D[pS]DD [NCoR C-terminal peptide, double-phosphorylated] | – | 50
